From US20050244966A1, “Insulin producing cells” (Ramot At Tel Aviv University Ltd., priority 2003, published 2005)

How the values were obtained:
FH-B-TPN cells [1] = assay: Insulin content of FH-B-TPN cells (RIA/ELISA of cell extracts); type: cell-based, human; details: for Insulin content: RIA; for Fold increase (insulin content): vs CM
Procedure: FH cells were isolated and cultured as described (19), in Dulbecco's modified Eagle's medium containing 25 mM glucose and supplemented with 10% fetal bovine serum (FBS), 100 U/ml penicillin, 100 μg/ml streptomycin, 5 μM hydrocortisone, and 5 μg/ml insulin. A subclone of FH cells that was stably transduced with hTERT, designated FH-B-hTERT (FH-B), was cultured in the same medium, as described (20). FH-B cells transduced with the Pdx1 gene (see below), designated FH-B-TPN cells, were maintained in the same culture medium, with the exception of hydrocortisone and insulin (complete medium CM). For incubation in serum-free medium, the cells were placed in DMEM containing antibiotics, in the presence of 100 ng/ml insulin, 55 ng/ml transferrin, and 50 pg/ml selenium (ITS, Sigma). For all experiments activin A (Cytolab/PreproTech Asia, Rehovot, Israel) was added at a final concentration of 4 nM. except for those aimed at promoting differentiation of FH-B-TPN cells towards the beta-cell phenotype. There, addition of Act-A, as well as betacellulin (BTC, R&D Systems, Minneapolis, Minn.), nicotinamide (NA), exendin-4, and hepatocyte growth factor (HGF) (the last 3 compounds from Sigma-Aldrich) was at concentrations detailed herein below.
(§1) Insulin secretion from FH-B-TPN cells was measured by static incubation as previously described (2). Cells were plated in 24-well plates at 10^5 cells per well. The cells were preincubated for 1 hour in Krebs-Ringer buffer (KRB), followed by incubation for the indicated period of time in KRB containing 0.5 mM 1-isobutyl 3-methylxanthine (IBMX) and glucose at various concentrations. The cells were then extracted in acetic acid, and the amount of insulin in the buffer and cell extract was determined by radioimmunoassay (RIA) using the INSIK-5 kit (DiaSorin, Vercelli, Italy) according to the manufacturer. This assay has <20% crossreactivity with proinsulin. In addition, insulin content was determined using an ELISA kit (Diagnostic Systems Laboratories, Webster, Tex. or (Mercodia, Uppsala, Sweden), which recognizes only mature insulin. Insulin content was normalized to total cellular protein, measured by the Bio-Rad (Hercules, Calif.) Protein Assay kit. Human C-peptide in the cell extract was determined using a RIA kit (DiaSorin, Vercelli, Italy) or ELISA kit (Mercodia, Uppsala, Sweden) according to the manufacturers.

FH-B-TPN cells [2] = assay: Cell doubling time by cell counting; TUNEL assay; type: cell-based, human
Description: The cell doubling time, as determined by cell counting, was not affected by Act-A treatment in CM. […] No apoptotic cells were detected using a TUNEL assay under any of the conditions (data not shown).

FH-B-TPN cells [3] = assay: RT-PCR analysis of gene expression in FH-B-TPN cells; type: cell-based, human; details: 4 nM activin A; FIG. 7
Procedure: Total RNA was extracted from cultured cells, mature human hepatocytes (obtained from Incara Cell Technologies, North Carolina), and human pancreatic islets (obtained through the Juvenile Diabetes Research Foundation Islet Distribution Program), using commercial kits (High Pure RNA isolation kit, Roche Molecular Biochemicals, Mannhein, Germany; Trizol Reagent, Invitrogen Life Technologies, Carlsbad, Calif.).
Specific transcripts were analyzed with Promega (Madison, Wis.) RT-PCR kit or GeneAmp Gold RNA PCR kit (Perkin Elmer Corp., Indianapolis, Ind.) or Superscript III RT-PCR (Invitrogene Life Technologies, Carlsbad, Calif.) according to the manufacturers. The absence of DNA contamination in RNA samples was confirmed with PCR primers flanking an intron. cDNA was amplified for 40 cycles (94° C. for 45 sec; annealing under conditions indicated in Table 1 below for 45 sec; 72° C. for 40 sec), using the primer pairs listed in Table 1 below.
PCR products were separated by electrophoresis in 1.5%-2.5% agarose gels and visualized by ethidium bromide staining.

FH-B-TPN cells [4] = assay: Human C-peptide in cell extract and culture medium (ELISA); type: cell-based; details: SFM (6 d) then 3 nM Act-A in SFM (3 d)
Procedure: as §1

FH-B-TPN cells [5] = assay: Immunofluorescence analyses of protein expression in FH-B-TPN cells; type: cell-based, human; details: 6 days in serum-free medium with ITS and activin A; FIG. 8
Procedure: FH-B-TPN cells plated in 6-well plates on sterilized coverslips were fixed in 4% paraformaldehyde. For cytoplasmic antigens, cells were blocked for 10 min at room temperature in 5% bovine serum albumin, 5% FBS and 0.1% Triton X-100, and stained with the antibodies as detailed in Table 2 diluted in blocking solution, for 1 hour at room temperature.
For immunostaining of nuclear antigens, cells were permeabilized in 0.25% NP40 for 10 min at room temperature prior to blocking, followed by incubation with the primary antibody as detailed in Table 2 hereinabove. The stained cells were photographed under a Zeiss confocal microscope. FH-B, Cos7 or 293T cells were used as negative controls. Nuclei were visualized with DAPI (Roche) staining for 5 minutes at room temperature. Kidney tissue was fixed in 4% paraformaldehyde, embedded in paraffin, and sectioned. Sections were rehydrated, washed in PBS, and unmasked (if needed) in Unmasking Solution (Vector Laboratories, Burlingame, Calif.) according to the manufacturer. Sections were blocked for 2 h in 0.2% Tween 20 and 0.2% gelatin, incubated overnight at 4° C. with primary antibodies and 2 h at room temperature with the secondary antibodies as detailed in Table 2 hereinabove, stained with DAPI, and mounted. BrdU staining was performed as previously described (28b).

[6] = FH-B-TPN cells, 4 nM in CM (6 d)
[7] = SFM (6 d) then 3 nM Act-A in SFM (3 d)

B1: activin A (protein, UniProt P08476 311-426, looked up)
Inhibin beta A chain: GLECDGKVNICCKKQFFVSFKDIGWNDWIIAPSGYHANYCEGECPSHIAGTSGSSLSFHSTVINHYRMRGHSPFANLKSCCVPTKLRPMSMLYYDDGQNIIKKDIQNMIVEECGCS
FH-B-TPN cells [1]; 6 days in serum-free medium supplemented with both ITS and activin A
  Insulin content compared with serum-free medium without activin A: further doubling
FH-B-TPN cells [1]; [6]
  Insulin content: 729 ± 55 ng/10^6 cells
FH-B-TPN cells [1]; FH-B-TPN cells, Act-A 3 nM in CM (3 d) + CM (6 d), mean ± SD (n = 3)
  Insulin content: 1661 ± 319 ng/10^6 cells
FH-B-TPN cells [1]; FH-B-TPN cells, Act-A 3 nM in CM (3 d) + CM (6 d)
  Fold increase (insulin content): 8.8
FH-B-TPN cells [1]; FH-B-TPN cells, Act-A 3 nM in CM (3 d) + SFM (6 d), mean ± SD (n = 3)
  Insulin content: 1493 ± 229 ng/10^6 cells
FH-B-TPN cells [1]; FH-B-TPN cells, Act-A 3 nM in CM (3 d) + SFM (6 d)
  Fold increase (insulin content): 7.9
FH-B-TPN cells [1]; FH-B-TPN cells, Act-A 3 nM in CM (3 d), mean ± SD (n = 3)
  Insulin content: 1399 ± 269 ng/10^6 cells
FH-B-TPN cells [1]; FH-B-TPN cells, Act-A 3 nM in CM (3 d)
  Fold increase (insulin content): 7.4
FH-B-TPN cells [1]; FH-B-TPN cells, Act-A 3 nM in SFM (3 d), mean ± SD (n = 3)
  Insulin content: 2143 ± 179 ng/10^6 cells
FH-B-TPN cells [1]; FH-B-TPN cells, Act-A 3 nM in SFM (3 d)
  Fold increase (insulin content): 11.4
FH-B-TPN cells [1]; FH-B-TPN cells, Act-A 1-8 nM in regular medium (CM) for 6 days, FIG. 9
  Concentration giving maximal (optimal) increase in insulin content: 3 nM
FH-B-TPN cells [1]; FH-B-TPN cells, SFM (6 d) + Act-A 3 nM in SFM (3 d)
  Fold increase (insulin content): 33
FH-B-TPN cells [1]; [7]
  Increase over insulin content of cells incubated 9 days in SFM without Act-A: 2.6 fold
  Insulin content as share of the cellular protein content: 6%
  Insulin content relative to normal human pancreatic islets: about 60%
  Share of stored insulin in the form of mature protein (ELISA vs RIA): 95%
FH-B-TPN cells [2]
  Cell doubling time compared with cells growing in CM: not affected
FH-B-TPN cells [3]
  Glucagon mRNA: disappeared after an overnight treatment
  PAX4 and GLUT2 mRNAs: appeared following 3 days of treatment
FH-B-TPN cells [4]
  Human C-peptide secreted into the culture medium: 43.5±1.3 ng/10^6 cells
FH-B-TPN cells [4]; ELISA
  Human C-peptide levels in cells: 5153±180 ng/10^6 cells
FH-B-TPN cells [5]
  PP staining: disappeared
  Percent of cells stained for GK, PC1/3, and PC2: increase
  Percent of cells stained for NGN3: significant decrease
  Percentage of cells stained for ISL1, NKX6.1, and NKX2.2: significant increase

B2: betacellulin (protein, UniProt P35070 32-111, looked up)
Betacellulin: DGNSTRSPETNGLLCGDPEENCAATTTQSKRKGHFSRCPKQYKHYCIKGRCRFVVAEQTPSCVCDEGYIGARCERVDLFY
notes: betacellulin (R&D Systems), soluble factor
FH-B-TPN cells [1]; [6]
  Insulin content: 264 ± 7 ng/10^6 cells
  Fold increase (insulin content): 1.4
